Results reported in the NTF2 design screens of Basanta et al. (2020).

assay: protease stability score; higher = more stable; yeast display proteolysis, trypsin and chymotrypsin;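 note: relative to predicted unfolded state with 0 unfolded-like and 1 meaning tenfold more protease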

Row | Sequence | protease stability score
1 | SEEEESTHVWSRLFSHAIETGDEDLLERLIDPHVKLIVDGRELHGREELLTWIRRLFRHLGIDHMEVRIKNFDIINGRIRVEDELLLIVNGKEIRLETKVTVEKFDGKWHNQEVKIE | 0.776
2 | DEEKEEYNRKAKEFWQRWLTGDEKRLRELADPNVRLDIDGVELVGREEFVHAVHEFLRHIRFKDMKVHRTDNIDGKNESDFEVTGDVNGQDMKSRTHVLILLVNGKIKEVEHRWK | 0.222
3 | DKENHLMRELTRLIVDYINTGDWKEFRKLADPHVRIVIEVGDKRIERHGMEDWLKLVRDRLEEIRTHIEVHDVEAQGDKAHLDGRIRLIVGEFEIVIESRIKVVSIDGKLKEISVHMV | 1.48
4 | DEEEELWKELSKLIIHEWRTGDEEIFARLFDPNAKMRHLVDGRDDQHVGREKTVHVLLKVLEDLGIKHIKHEHITIQGDWVHMHTTLNVDGREIKVEMHFVVINGKYKSVEERTK | 0.966
5 | HEDEEISQNMMETMLRIIHTGDWHRFTELFDPHVRIEVNIGDKHLESVGREEARKWLERFKNRRTEIRDAKVRVQGDKVEIRIDGNVNVDGKEKHVEIILYIEKIDGRWLVHSVIIIIE | 2.13
6 | SEIKENLHRFFERWQEVLRTGDERHIRDMADPNVRLDVNGKEIHGRELFANWIREHIERVDHISVHIHDMDIYGNKAKIRGELELDQGDKKHHLDLEIVTTKVDGKWILRSVHVR | 2.12
7 | DEEKEISKKATEILISILRTGDEDVMREYLDPHVRIDFNGKQLHGMDYLWRLLKHMRLRSLDVHSFHFVDGVIEVDSRSDGEVNGQRTDYHFHFIIEKVNGKWWLHKVKFE | 1.64
8 | DEDEEKKDEARRLWEENLMTGDEETLFRLADPHVRTVINGVEFHGREEMLKAIRWLRHDLGAKHIDSIHIDSVTIQGDFVIVHGHLRFSIGDKRTDSEVHLHVLKVDGKWYVHEVNIN | -0.183
9 | GEMEKLLFKIFEEWMKLRKTGDEDVIAHLADPDYRWDVNGVDLHGMEHVKEFTEEFLRHLGFDHQEYRIRRFDHDGNKLRADTEVRIVVNGVDITHRTHIIIVQFNGKVKSVKERIR | 0.292
10 | TELEDELRKMFESWRHNSRTGNEHAEDNNMDPNVKLLIDGRTVVGMEFYRKWVHEARIEDSHVDHHTVIDGRAHVHMTLNSNYNGVHRRLEIELVSEKIDGKWRLKSIIIR | 1.51
11 | DDRERLTKLMSDDFIFSMLTGDEHFMHELIDPHARFLFNGQVHHGWKTMEFWREHLGIDNIHLQIRISDLEIQGDKATVRIDGEVKQGDKSFRTRFIIKVDKIDGRWVIHELRIIVL | 1.07
12 | DEEERLMKELSDRFLHMKETGDEELFHKLADPNVRVEIGDKSRHGRELATEFLSWVMKELGVKHVKLHDKRTYDGRVHLNGTLEFNGREFRVRITVIIVNGRVHDIRVELE | 0.771
13 | DEQFKEQKDMHRELEEALLTGDEESWHRLMDPNTRLFFEGRIHHGREEVVRAIREIRRRFGFKVIKRFEVEHVEIIDGRVDIRTIIRGEVNGRDSSLDTRLILNKIDGKWVIQSIIIE | 2.2
14 | DEEEKLIRIFDKLLSRAMKTGDEHELFKLIDPHTRMVVNGRTFIGWELFSHVVRHWRIDHIDLEDFKVQGDYAHLDGRVDQTVNGVKIETRSIIINEKFNGRWNNSSVILH | 0.163
15 | SEEENEAKSWLEYVIRLLETGDEDSLRKLMDPHVRLIQGDKEFHGRELVTDIISEHIRKVKNVRIRIDDIKFIGEKVYLHGTLEYGDKKHELHLITDKVNGRWLLRSIELR | 2.56
16 | DEEEETIRKYIEMMIRLWETGDEKSMLDLFDPDVRTLVNGQHLHGRHALEILLRRIDVRRHVHLHHIDLQGNKVEIDSRLEGTVDGKRDDIELTHHMVKVDGQWVIHNVEVR | 1.02
17 | SEHDEDLENAWRVIKHSTETGDEETSRELIDPNARIDINGKDLHGREEISRIFSEWRVHHIEIKHVEHVGNKVHIDGHEDINVDGRRMETRIELIITKINGKWLVHSIRYI | 0.53
18 | DEERKIAEKFAELYQHWEHTGNEDEMRSFFDPNYRLFVGEKEFVGRKTRSRWHREYIEKLGVDHVEIQDYRVQGNFVESDLVLRFNGREVKTEIRINVIDGRIKEVHIITH | 0.198

Row | Sequence | protease stability score
19 | SEDEKQLEHAVKLFIESLRTGDEHSLENLVDPNVRMQINGVELHGRELFIHLFREWRFHSVHLRHLDLQGDKVHLDGKLDVRFDGRRYEVILRTHIEKIDGRWHLRYMYEE | 1.45
20 | SEDRENFHRFWKELLRYYLTGDEDALTRMFDPNAQMIYGDKHYHGREVLEFIHHQVDVFRSVEIESSRSINGVVIIHVRLNGEYNGQQENTEFTLVFEKINGRWRIKQVRSE | 1.11
21 | DEREKELERIARELLKALYTGDEDILDKLVDPNVRLELDIDGKTNDIHGMENWFRFYETQWKKLGVDVYDIKDMDVWNGKITINSRVEVNGRYIDTRLILVVIDGRMHEIHIKEK | 1.23
22 | GEEQEDIKKFLEDDMEAWSTGDFRQLKRNMDPHVRIVINGRHLHGMETFEHFFEHLRVRITSLELKRVEAVGDKVSYDGELDFELDYNGRRLSQRTRVEFRIEKINGRWILHYVIFR | 0.329
23 | SEEEKHLRELSEHFIKLFLTGNEEELVNNADPHVQLHIDINGKKYHYHGREEFRKWAEERSEKIKNAKIILDHVEIQGEKLIIDTTWHFDGRNFRSKIKIKVFDGVLKEIHIEIR | 2.1
24 | DHEDERSRELTQILWKAWLTGDEELFHRLHDPDVRTEFDGREYHGWERFSELLNQFKNVRIRLRDYRIQGEKSKLDTQINIGDKRTRFHIEIYIIDGRLKNMRFEIE | 0.868
25 | DEEEEHLRKIMEEMTRANETGDFESWARNADPDYQLNVGDKRKHGREDWQEDLKRVDHLRLEVRIRRMRDVDGRIEVVGDLIIFIKVGEYEFESHSKVIIYIIKINGRWFIKSIEFL | 1
26 | EEERRDAEIALTVIEHHWETGDEKDLDEMLDPDVRVIINGQRYHGREWLSRFREDLGATYHDVHVDDIRIYDGRVEMDFHVRGKVGDKERDTRVRIFMIKFDGRWVVEQITLE | 1.95
27 | SEDEELSQKALEMVKHSSDTGDEKTTRQLMDPNYRMVIGDYELHGWELVVDFVRHARYDDLIMRRWDSQGDKIHLDGETIVNVGDKILHTRVRLIALKVNGQWKLNSVIFH | 0.149
28 | DEDEEAARHFLEQWLEALLTGDEETLTKLLDPHTRLIVDGQELVGRELWLEFFKRIKNMKIHRTEIRHTTSIGDKITLNIHVDVEVDGKRRRFDVQYVILKVNGRWLLKQVNNH | 0.498
29 | SEDEETVHEWFEVLRRDWATGNEENLMKLLDPHARLIIDGRELHGREHIIEFLRRHREHLGVTNIHVEFHIDNRKIFNGKVEVKGTLTIRINGKEEEREVILIIEKIDGRWYIKNLEIR | 0.552
30 | DEDEEDMRHALELIYRTFETGDERTTEELMDPHARIDIGEFKLHGREEAVEFYRLLLRKVKNLTIKIHHVEVYGEKITIDGRIDFDGRKRRVIILVEKVDGKWVINEIRVH | 1.42
31 | SEEVEHAEKVMRHTVHNIETGDEETWSNLADPNVLFQQGEFNLHGRELMFEWVRKYYEKIKNARIEIEDVRVFDGQIEFDVTWRVGDKHLKVHLHIEVINGRITEVRVDEK | 0.98
32 | SEEEELLRRIMKRVIHEWLTGDEDSFKELADPNVRVENIVDGRNIEAVGRDEAEHVWRHFDKHLGVDHRELKEFHVFDGVIRVRMKLKIGDKEIEMHLKFIIIDGRFTRVHSHSV | 1.31
33 | SEEYENAEKLTHHLTEILQTGDEQKLHELVDPHVKIHVDGVELHGMERYQELVDHWRIDSHTLHDFKIIGDKARVDSRVILTIGDKKERISLRFILVKIDGQWLNHEVEFN | 1.79
34 | DEEKKLMLESMKQTLDKIFTGDFDSTAEYLDPHARYIIGDKTLHGMERWKEFLDRFDHVHIHDVKLHSVRIIDGVAILDGRIDTEIIINGVRIRETVEVQIVIVKVNGRWKDERVEFK | 0.13
35 | SEDERDMERFNRLVSHAMETGDEDTLNHLADPNVRVHIGDKDLHGREDYSRWLHELIRRVDYMEVHIHDERLQGDKAIVDSRIRLKFDGVETRIETILYLKKFDGRWRMTTFELK | 0.705
36 | DEDEEIARKIMEMLIEELRTGDEEKSTENADPNVRVHFNGKDLHGWEEFSRLASKFKGLRFILRRMDVFNGRVVIDGEERWDGRTHRVILHIEKVNGRWRIKQVDIH | 1.63
